Laboratory results taken from the supplement of paper PMC12764529.
± gives the half width of the 95% confidence interval.

How the values were obtained:
[1] = folding stability dG unfold from trypsin proteolysis; higher = more stable
In short: (§1)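 How resistant each design was to proteolysis was captured as K50, inferred by Bayesian fitting of sequencing counts. Unfolding free energy was then derived relative to a sequence-predicted unfolded-state K50 and a shared folded-state K50, per protease or combined. Digestion used trypsin and chymotrypsin at 11 threefold-diluted concentrations plus a no-protease condition, on mini-proteins under 80 residues without cysteine in a PA-tagged cDNA display construct. Designs were kept only when AlphaFold2 dimer inter-PAE was above 15.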

[2] = folding stability dG unfold from chymotrypsin proteolysis; higher = more stable
In short: as §1

[3] = folding stability dG unfold (combined trypsin and chymotrypsin); higher = more stable
In short: as §1

Sequence	folding stability dG unfold [1]	folding stability dG unfold [2]	folding stability dG unfold [3]
SAGGSAGGSADIKVEVEYDKSNGYMWVKIKLPGKDIPIWIPPNDSPEQMEEKAIDFAKYLLKSAGGSAGGSA [r18_266_TrROS]	0.592 ± 0.12 kcal/mol	0.765 ± 0.21 kcal/mol	0.791 ± 0.27 kcal/mol
SAGGSAGGSADNKPFKVEIDVEHHPPNGYYRVTIEWPDGREIVVWMPGNPDEAKDQAKELISAGGSAGGSAG [r3_143_TrROS]	1.28 ± 0.04 kcal/mol	1.26 ± 0.22 kcal/mol	1.31 ± 0.16 kcal/mol
SAGGSAGGSADPPRSVLKEERSPDGTTTYKLLEYPGERVLVVTRTPPDGTEEVVLIPEEELSAGGSAGGSAG [r3_167_JUSTAS]	0.322 ± 0.071 kcal/mol	0.0217 ± 0.25 kcal/mol	0.231 ± 0.086 kcal/mol
SAGGSAGGSADYFMVVIKYYPPNGEKQEHPFSVPFKDEEDLKDEIKEQAPPGREVEIEIFPMSAGGSAGGSA [r18_60_TrROS]	0.956 ± 0.083 kcal/mol	-0.0385 ± 0.17 kcal/mol	0.647 ± 0.12 kcal/mol
SAGGSAGGSAEDVVLKVKIEIPSSDGTLLEIDEAIYNPKPGTLHFKIRSPDGSEFEIEIPLDSAGGSAGGSA [r18_370_TrMRF]	0.725 ± 0.033 kcal/mol	1.44 ± 0.13 kcal/mol	1.12 ± 0.082 kcal/mol
SAGGSAGGSAEELAKKLAEELRKEHNLEVTVEEVELKEEEIPGLKFKPGQKLLVITVKKKDSAGGSAGGSAG [r3_229_TrROS_Hall]	0.901 ± 0.033 kcal/mol	0.227 ± 0.069 kcal/mol	0.604 ± 0.13 kcal/mol
SAGGSAGGSAEELLKAFPNAEIVKYDPETKKFIIKLKDGSYLVVNLETGEIKLVSKEELEKASAGGSAGGSA [r18_381_TrROS_Hall]	2.66 ± 0.11 kcal/mol	3.94 ± 0.066 kcal/mol	3.67 ± 0.076 kcal/mol
SAGGSAGGSAEEPEFEIVSVEYDPETNVLTVVVRDKKTGRLYVFRFYPDGTVEVREVSLEDLSAGGSAGGSA [r18_521_TrROS_Hall]	3.37 ± 0.064 kcal/mol	5.03 ± 0.057 kcal/mol	4.74 ± 0.076 kcal/mol
SAGGSAGGSAEKPPPPVVTLRVRVVVEVDGKLYVATAEVRLVDGKLEIRVRIEEVPPGAPVSAGGSAGGSAG [r3_49_TrROS_Hall]	3.7 ± 0.12 kcal/mol	4.59 ± 0.22 kcal/mol	4.34 ± 0.17 kcal/mol
SAGGSAGGSAEPGPEELAKALAGELEKRFGKPVKEVKAYEIPGEKRYIVTAKLDDGEFTIIASAGGSAGGSA [r18_145_TrMRF]	-0.267 ± 0.28 kcal/mol	-0.235 ± 0.28 kcal/mol	-0.121 ± 0.38 kcal/mol
SAGGSAGGSAEPPRYLVIELEVERSPEEIAEELRRRLGIERVEVEYDPETERLRVRVVVRLPSAGGSAGGSA [r18_275_TrROS_Hall]	1.96 ± 0.048 kcal/mol	3.37 ± 0.047 kcal/mol	2.88 ± 0.11 kcal/mol
SAGGSAGGSAEPVRLVVVTPGFPDGPPIPVEELEALLEAEDVTVVDPFTIPELGYVVLLVEASAGGSAGGSA [r18_466_TrMRF]	1.4 ± 0.048 kcal/mol	0.728 ± 0.092 kcal/mol	1.07 ± 0.1 kcal/mol
SAGGSAGGSAETFTLPGGYTITVEPTEGGVKVTITHPDGSKGEVELGPTEPLVVDPDGATILASAGGSAGGS [r12_281_TrMRF]	1.49 ± 0.079 kcal/mol	1.66 ± 0.093 kcal/mol	1.66 ± 0.1 kcal/mol
SAGGSAGGSAEVEIEFVSYDPSTGRLVRKRVKLKLLPDPKGGPVEVVEVEVDPGGPVPAGASAGGSAGGSAG [r3_397_TrMRF]	1.91 ± 0.053 kcal/mol	2.08 ± 0.046 kcal/mol	2.11 ± 0.12 kcal/mol
SAGGSAGGSAEVEIEVDKETKELYIKDSNGKVKKIKVKVVKVEVKKPVVTLPKEELSEEELKSAGGSAGGSA [r18_59_TrROS_Hall]	0.818 ± 0.084 kcal/mol	-0.357 ± 0.17 kcal/mol	0.258 ± 0.33 kcal/mol
SAGGSAGGSAEVFIVKFSDPAKLKAFMEKLGLSYEKGDNPKITNPEEFLKNLPLVKNVVVTKKSAGGSAGGS [r12_571_JUSTAS]	0.286 ± 0.12 kcal/mol	0.54 ± 0.14 kcal/mol	0.423 ± 0.057 kcal/mol
SAGGSAGGSAEVPKPGEAKPVLVTSSFTIPLPNGGTLEITTVDLVDVATGTVTPRVEVRSLDSAGGSAGGSA [r18_123_TrMRF]	-0.786 ± 0.33 kcal/mol	-0.991 ± 0.88 kcal/mol	< -1 kcal/mol
SAGGSAGGSAFTIHDLKLNKVEVHPDGTVTYHLEVTLPSGEKLKVVVLVDPRKPSLATFYFSSAGGSAGGSA [r18_97_TrMRF]	2.31 ± 0.2 kcal/mol	3.31 ± 0.057 kcal/mol	2.94 ± 0.13 kcal/mol
SAGGSAGGSAFVWNPDTGTFIQLDPNDGTIEVFEIENDNDGKLEPIGTVEVDPDDPDKGTITSAGGSAGGSA [r18_448_TrROS]	1.75 ± 0.13 kcal/mol	1.23 ± 0.069 kcal/mol	1.5 ± 0.1 kcal/mol
SAGGSAGGSAGAEIKIKKVEKKDSKLKLILPDGRIYEVKKDKKKSNSIKKIKIKKLPPLKSAGGSAGGSAGG [r17_173_JUSTAS]	0.113 ± 0.34 kcal/mol	-0.181 ± 0.59 kcal/mol	-0.0549 ± 0.47 kcal/mol
SAGGSAGGSAGAKVKVFKVRAEVKLTRTADGELVAEVTEVEIEEVEVEVRPPPPPPLPPASAGGSAGGSAGG [r11_381_TrROS_Hall]	1.67 ± 0.24 kcal/mol	3.11 ± 0.14 kcal/mol	2.92 ± 0.35 kcal/mol

Sequence	folding stability dG unfold [1]	folding stability dG unfold [2]	folding stability dG unfold [3]
SAGGSAGGSAGAPPGSTVTVTYTVTTTVTDRVPDGPGFTNPHTLTSTVTTTVNVGHPDLVSAGGSAGGSAGG [r11_734_TrMRF]	0.833 ± 0.058 kcal/mol	0.00274 ± 0.17 kcal/mol	0.585 ± 0.12 kcal/mol
SAGGSAGGSAGAPTVKLTFTVTRTETKTETLPDGTTKTETKTETRTVTLTLAPGETITVTSAGGSAGGSAGG [r11_174_TrROS_Hall]	3.39 ± 0.084 kcal/mol	4.27 ± 0.077 kcal/mol	3.98 ± 0.11 kcal/mol
SAGGSAGGSAGASLKEELGFAEVLSRSPTPDTEPLLLKHPEGGELVTVEVDAATAVEWLESAGGSAGGSAGG [r11_630_JUSTAS]	0.343 ± 0.091 kcal/mol	0.424 ± 0.17 kcal/mol	0.354 ± 0.24 kcal/mol
SAGGSAGGSAGASPTAPAVTVEVKTEEVPNNDLLKTTTTTYFPGTGTTVTTETILPPGLGSAGGSAGGSAGG [r11_746_JUSTAS]	0.187 ± 0.053 kcal/mol	-0.269 ± 0.086 kcal/mol	-0.00225 ± 0.12 kcal/mol
SAGGSAGGSAGATISPDGYKIVVTNADGEKVTLTFDSLEEAKAALEALLPPGARVFIEKVSAGGSAGGSAGG [r11_983_TrROS_Hall]	0.529 ± 0.035 kcal/mol	2.009 ± 0.011 kcal/mol	1.61 ± 0.031 kcal/mol
SAGGSAGGSAGDDGDKKPEVKVKVKIEPTIIPSPNGELMLMWTLEIEYPGNGEKREFTFMSAGGSAGGSAGG [r17_59_TrROS]	1.33 ± 0.071 kcal/mol	1.92 ± 0.13 kcal/mol	1.58 ± 0.17 kcal/mol
SAGGSAGGSAGDENEKPKPKMQMKMIQIKFPPEDLPELAEEFGIDSVHIMPNGSLFIMVYSAGGSAGGSAGG [r11_64_TrROS]	1.07 ± 0.11 kcal/mol	1.48 ± 0.1 kcal/mol	1.36 ± 0.18 kcal/mol
SAGGSAGGSAGDEWITIWFLFPSPEQAKDIADPLASNGLNIDVETHRMPDGNYWVNITIPSAGGSAGGSAGG [r11_677_TrROS]	2.21 ± 0.092 kcal/mol	3.34 ± 0.089 kcal/mol	2.9 ± 0.11 kcal/mol
SAGGSAGGSAGDGMIEVKVEFERLFFDENGNVTKKEKVDEIIKVPPVTIDTSTGKLTPLPSAGGSAGGSAGG [r17_413_JUSTAS]	0.261 ± 0.051 kcal/mol	0.229 ± 0.021 kcal/mol	0.284 ± 0.073 kcal/mol
SAGGSAGGSAGDLLKEALEEAKKAGIKTATITVEVDGKLYTLTVKLEPKPPPKEVKVEKKSAGGSAGGSAGG [r17_475_TrROS_Hall]	-0.977 ± 0.51 kcal/mol	0.814 ± 0.17 kcal/mol	0.526 ± 0.38 kcal/mol
SAGGSAGGSAGDNYVMITHTIPFPPGEPLEIKIPPGAKIDDIDPERDPGNGTITVSIWFRSAGGSAGGSAGG [r11_701_TrROS]	0.491 ± 0.24 kcal/mol	0.879 ± 0.17 kcal/mol	0.73 ± 0.25 kcal/mol
SAGGSAGGSAGDPVLTVTLLDDNHPVTLTYHPGEKTVTVSVYPLKSGKVLGTVTVPASELSAGGSAGGSAGG [r11_231_TrMRF]	-1.45 ± 0.71 kcal/mol	0.37 ± 0.13 kcal/mol	-0.0506 ± 0.12 kcal/mol
SAGGSAGGSAGDWIKFEYTFKWNFFDPDGDLLMNMTVRVTIEIPIPPVPKPVKPSPNDDNSAGGSAGGSAGG [r17_325_TrROS]	3.52 ± 0.13 kcal/mol	5.4 ± 0.15 kcal/mol	5.34 ± 0.22 kcal/mol
SAGGSAGGSAGEEKETLTLVLPLEDMSPEEIAKLLEAAGYKVTVEEKDGLLVVKIERKPPSAGGSAGGSAGG [r11_707_TrROS_Hall]	2.57 ± 0.08 kcal/mol	2.855 ± 0.017 kcal/mol	2.77 ± 0.065 kcal/mol
SAGGSAGGSAGEFEIIIPPGVAEERPELLEEIRDRFKPLGLEVEVEYIPGEGYVRVKVKGSAGGSAGGSAGG [r11_357_TrMRF]	1.36 ± 0.061 kcal/mol	1.64 ± 0.036 kcal/mol	1.55 ± 0.11 kcal/mol
SAGGSAGGSAGEFELLSVEYFPPIGRVRVAYRRGDLVLVVDFFNPENPEIRPVSLSDELGSAGGSAGGSAGG [r17_145_TrMRF]	2.64 ± 0.067 kcal/mol	2.48 ± 0.057 kcal/mol	2.59 ± 0.18 kcal/mol
SAGGSAGGSAGEFEPVPVLTLPGLDDREVRVVLFKDPPLVLLEVEGAPYVLPAEELLRLASAGGSAGGSAGG [r11_370_TrMRF]	-0.19 ± 0.09 kcal/mol	1.26 ± 0.13 kcal/mol	0.856 ± 0.12 kcal/mol
SAGGSAGGSAGEIENPSLLSQIVPRKVKVTTEIRKLPNGSYETVTTVTYGSTTTTTTSSGATSAGGSAGGSA [r18_335_JUSTAS]	0.163 ± 0.048 kcal/mol	-0.256 ± 0.15 kcal/mol	0.0269 ± 0.096 kcal/mol
SAGGSAGGSAGEIVEVDGKLYIRVRTKDGEWKLIEMSADEIASLPAENVEEVEIVDPKDLSAGGSAGGSAGG [r11_779_TrROS_Hall]	2.6 ± 0.1 kcal/mol	3.16 ± 0.075 kcal/mol	3.08 ± 0.11 kcal/mol
SAGGSAGGSAGELSLEEIKKLAPDETAVVKLPPSPETIVITVSTNPNGTLKIEIKRYPPGSAGGSAGGSAGG [r11_13_JUSTAS]	0.566 ± 0.037 kcal/mol	0.657 ± 0.03 kcal/mol	0.674 ± 0.1 kcal/mol
SAGGSAGGSAGELTVTVTVLLEDGTAVKIEARFELDENGNLHLEVKVEVVKLPELSPEDLSAGGSAGGSAGG [r11_728_TrROS_Hall]	3.4 ± 0.43 kcal/mol	2.25 ± 0.2 kcal/mol	2.74 ± 0.32 kcal/mol
